This note sets out measurements from PMC6328254, “Sequential Regulation of Maternal mRNAs through a Conserved cis-Acting Element in Their 3′ UTRs”.

One data set has as its target Bruno (UniProt O02374 1-604). The experiment in a line: EMSA; 50 mM Tris pH 7.5, 150 mM NaCl, 2 mM DTT, 0.1 mg/ul BSA (so in the source), 0.001% Igepal CA-630, dIdC and yeast tRNA; 20 min at RT; 6% native PAGE at 4 C. The following applies: protein: recombinant; tags: His (pETM-82; purified on His GraviTrap); label: 5'-32P. Background: In EMSA bound probe runs differently from free probe, usually more slowly.

The target of data set [1] is T1, Pumilio RNA-binding domain (UniProt P25822 1091-1426).
T1 sequence: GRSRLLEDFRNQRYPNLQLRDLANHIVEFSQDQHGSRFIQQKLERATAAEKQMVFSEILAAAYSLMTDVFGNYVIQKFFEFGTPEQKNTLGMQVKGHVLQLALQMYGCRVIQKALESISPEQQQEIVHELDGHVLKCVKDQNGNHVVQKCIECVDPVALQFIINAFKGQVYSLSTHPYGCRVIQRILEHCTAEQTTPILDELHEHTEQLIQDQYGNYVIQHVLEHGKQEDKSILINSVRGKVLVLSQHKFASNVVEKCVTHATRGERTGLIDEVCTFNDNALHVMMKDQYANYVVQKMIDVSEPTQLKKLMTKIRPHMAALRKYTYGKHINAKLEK
The data set is described as above. The note with it: protein: recombinant; tags: HaloTag (pFN18K) removed by AcTEV cleavage; label: 5'-32P.

Sequence of Bruno (O02374 entry or part of it): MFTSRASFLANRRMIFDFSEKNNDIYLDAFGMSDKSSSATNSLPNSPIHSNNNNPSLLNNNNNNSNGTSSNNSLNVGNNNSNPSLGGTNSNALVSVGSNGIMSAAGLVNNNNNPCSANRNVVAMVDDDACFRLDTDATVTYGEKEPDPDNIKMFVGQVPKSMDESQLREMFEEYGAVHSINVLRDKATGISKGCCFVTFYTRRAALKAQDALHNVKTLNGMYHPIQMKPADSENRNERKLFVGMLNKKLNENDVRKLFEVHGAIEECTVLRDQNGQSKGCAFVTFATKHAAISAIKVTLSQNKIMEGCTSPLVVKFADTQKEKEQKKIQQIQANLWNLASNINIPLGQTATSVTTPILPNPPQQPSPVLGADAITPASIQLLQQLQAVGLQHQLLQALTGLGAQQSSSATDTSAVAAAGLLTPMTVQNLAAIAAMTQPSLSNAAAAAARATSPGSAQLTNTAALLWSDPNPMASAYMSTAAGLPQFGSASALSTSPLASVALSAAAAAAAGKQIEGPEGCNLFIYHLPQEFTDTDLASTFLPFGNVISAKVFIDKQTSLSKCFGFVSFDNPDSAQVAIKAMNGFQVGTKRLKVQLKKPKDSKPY

With UUUGUAAAUU (ssRNA) [pgc 3'UTR PRE/BRE], the binding result (with Bruno; in data set [1]) was “binds” throughout. As for CUUGAAUGUAUGUUAAUUGUAUGUAUUGAU (ssRNA) [osk 3'UTR BRE], in the data set with Bruno, the binding result is “binds”. With UUUUUUAAUU (ssRNA) [pgc 3'UTR PRE mutant UUUU], the binding result (with Bruno; in data set [1]) was “no binding” throughout. In the case of UAGACUAUUUGUAAUUUAUAUC (ssRNA) [CycB 3'UTR NRE], in data set [1], the binding result is “binds”. On to UUUCUCAAUU (ssRNA) [pgc 3'UTR PRE mutant UCUC], for which the binding result (with Bruno; in data set [1]) was “no binding” throughout.
